Reference: paper PMC12296736
Where two headings read alike, the source gives them in different places.

T1: His-nOsBZR4 (His-OsBZR4) (Oryza sativa (rice), UniProt Q6EUF1 1-108)
T1 sequence: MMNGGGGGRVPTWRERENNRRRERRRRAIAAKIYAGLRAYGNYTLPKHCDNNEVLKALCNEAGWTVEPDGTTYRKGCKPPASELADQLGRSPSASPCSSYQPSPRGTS


Columns and labels:
[1] = molecular target: T1, His-nOsBZR4 (His-OsBZR4); assay: EMSA
[2] = molecular target: T1, His-nOsBZR4 (His-OsBZR4); assay: EMSA; remark: listed apart in the source

| Binder | binding result [1] | binding result [2] |
| --- | --- | --- |
| YUC4-EMSA (dsDNA) DNA 1: CGACCGAGCATATGCTCCGTGTTGGTGTATATATACTCGT DNA 2: ACGAGTATATATACACCAACACGGAGCATATGCTCGGTCG | binds | – |
| YUC11-EMSA (dsDNA) DNA 1: TTCCGTATAAATAGCATGTGCTCTCCGA DNA 2: TCGGAGAGCACATGCTATTTATACGGAA | – | binds |
